Assay results as given in the array DNA melting data of Ke et al..

Test: melting temperature; melt of duplexes
Conditions: sodium 0.0675 M; strand 1 µM

| Substance | Tm [°C] |
| --- | --- |
| CGACGTGCGCGATGTGCTG+CAGCACATCCCGCACGTCG (((((((((.(((((((((+))))))))).))))))))) | 59.2 |
| CGACGTGCGCGATGTGCTG+CAGCACATCCGGCACGTCG ((((((((..(((((((((+)))))))))..)))))))) | 55 |
| CGACGTGCGCGATGTGCTG+CAGCACATCGGGCACGTCG ((((((((.((((((((((+)))))))))).)))))))) | 63.6 |
| CGACGTGCGCGATGTGCTG+CAGCACATCTAGCACGTCG ((((((((..(((((((((+)))))))))..)))))))) | 55.5 |
| CGACGTGCGCGATGTGCTG+CAGCACATGCTGCACGTCG ((((((((...((((((((+))))))))...)))))))) | 52.9 |
| CGACGTGCGCGATGTGCTG+CAGCACATGGAGCACGTCG ((((((((.(.((((((((+)))))))).).)))))))) | 56 |
| CGACGTGCGCGATGTGCTG+CAGCACATGGCGCACGTCG ((((((((((.((((((((+)))))))).)))))))))) | 62 |
| CGACGTGCGCGATGTGCTG+CAGCACATGGGGCACGTCG ((((((((.(.((((((((+)))))))).).)))))))) | 55.6 |
| CGACGTGCGCGATGTGCTG+CAGCACATGTAGCACGTCG ((((((((...((((((((+))))))))...)))))))) | 52.6 |
| CGACGTGCGCGATGTGCTG+CAGCACATGTGGCACGTCG ((((((((...((((((((+))))))))...)))))))) | 51.7 |
| CGACGTGCGCGATGTGCTG+CAGCACATTAAGCACGTCG ((((((((...((((((((+))))))))...)))))))) | 55 |
| CGACGTGCGCGATGTGCTG+CAGCACATTATGCACGTCG ((((((((...((((((((+))))))))...)))))))) | 50 |
| CGACGTGCGCGATGTGCTG+CAGCACATTCTGCACGTCG ((((((((...((((((((+))))))))...)))))))) | 50.4 |
| CGACGTGCGCGATGTGCTG+CAGCACATTGAGCACGTCG ((((((((.(.((((((((+)))))))).).)))))))) | 56.8 |
| CGACGTGCGCGATGTGCTG+CAGCACATTGGGCACGTCG ((((((((.(.((((((((+)))))))).).)))))))) | 57.1 |
| CGACGTGCGCGATGTGCTG+CAGCACATTTAGCACGTCG ((((((((...((((((((+))))))))...)))))))) | 52.2 |
| CGACGTGCGCGATGTGCTG+CAGCACATTTTGCACGTCG ((((((((...((((((((+))))))))...)))))))) | 48.9 |
| CGACGTGCGCTATGTGCTG+CAGCACATAAGGCACGTCG ((((((((..(((((((((+)))))))))..)))))))) | 51.6 |
| CGACGTGCGCTATGTGCTG+CAGCACATACAGCACGTCG ((((((((..(((((((((+)))))))))..)))))))) | 52.1 |
| CGACGTGCGCTATGTGCTG+CAGCACATACCGCACGTCG (((((((((.(((((((((+))))))))).))))))))) | 54.8 |
| CGACGTGCGCTATGTGCTG+CAGCACATACGGCACGTCG ((((((((..(((((((((+)))))))))..)))))))) | 50.6 |
| CGACGTGCGCTATGTGCTG+CAGCACATAGGGCACGTCG ((((((((.((((((((((+)))))))))).)))))))) | 59.6 |
| CGACGTGCGCTATGTGCTG+CAGCACATAGTGCACGTCG ((((((((.((((((((((+)))))))))).)))))))) | 58.2 |
| CGACGTGCGCTATGTGCTG+CAGCACATATAGCACGTCG ((((((((..(((((((((+)))))))))..)))))))) | 53.8 |

| Substance | Tm [°C] |
| --- | --- |
| CGACGTGCGCTATGTGCTG+CAGCACATATCGCACGTCG (((((((((.(((((((((+))))))))).))))))))) | 56 |
| CGACGTGCGCTATGTGCTG+CAGCACATCAAGCACGTCG ((((((((...((((((((+))))))))...)))))))) | 51.4 |
| CGACGTGCGCTATGTGCTG+CAGCACATCACGCACGTCG (((((((((..((((((((+))))))))..))))))))) | 53.3 |
| CGACGTGCGCTATGTGCTG+CAGCACATCCGGCACGTCG ((((((((...((((((((+))))))))...)))))))) | 48.1 |
| CGACGTGCGCTATGTGCTG+CAGCACATCGAGCACGTCG ((((((((.(.((((((((+)))))))).).)))))))) | 53.1 |
| CGACGTGCGCTATGTGCTG+CAGCACATCGCGCACGTCG ((((((((((.((((((((+)))))))).)))))))))) | 60.1 |
| CGACGTGCGCTATGTGCTG+CAGCACATCTAGCACGTCG ((((((((...((((((((+))))))))...)))))))) | 50.4 |
| CGACGTGCGCTATGTGCTG+CAGCACATGAAGCACGTCG ((((((((...((((((((+))))))))...)))))))) | 53.9 |
| CGACGTGCGCTATGTGCTG+CAGCACATGACGCACGTCG (((((((((..((((((((+))))))))..))))))))) | 52.4 |
| CGACGTGCGCTATGTGCTG+CAGCACATGCGGCACGTCG ((((((((...((((((((+))))))))...)))))))) | 54 |
| CGACGTGCGCTATGTGCTG+CAGCACATGGCGCACGTCG ((((((((((.((((((((+)))))))).)))))))))) | 63.2 |
| CGACGTGCGCTATGTGCTG+CAGCACATGGGGCACGTCG ((((((((.(.((((((((+)))))))).).)))))))) | 56.7 |
| CGACGTGCGCTATGTGCTG+CAGCACATGGTGCACGTCG ((((((((.(.((((((((+)))))))).).)))))))) | 54.6 |
| CGACGTGCGCTATGTGCTG+CAGCACATGTAGCACGTCG ((((((((...((((((((+))))))))...)))))))) | 52.5 |
| CGACGTGCGCTATGTGCTG+CAGCACATGTGGCACGTCG ((((((((...((((((((+))))))))...)))))))) | 50.8 |
| CGACGTGCGCTATGTGCTG+CAGCACATTAAGCACGTCG ((((((((...((((((((+))))))))...)))))))) | 52.8 |
| CGACGTGCGCTATGTGCTG+CAGCACATTCTGCACGTCG ((((((((...((((((((+))))))))...)))))))) | 48.6 |
| CGACGTGCGCTATGTGCTG+CAGCACATTGCGCACGTCG ((((((((((.((((((((+)))))))).)))))))))) | 61 |
| CGACGTGCGCTATGTGCTG+CAGCACATTTAGCACGTCG ((((((((...((((((((+))))))))...)))))))) | 51.6 |
| CGACGTGCGGAATGTGCTG+CAGCACATAAAGCACGTCG ((((((((...((((((((+))))))))...)))))))) | 55.5 |
| CGACGTGCGGAATGTGCTG+CAGCACATACGGCACGTCG ((((((((.(.((((((((+)))))))).).)))))))) | 53.3 |
| CGACGTGCGGAATGTGCTG+CAGCACATACTGCACGTCG ((((((((.(.((((((((+)))))))).).)))))))) | 54.3 |
| CGACGTGCGGAATGTGCTG+CAGCACATATAGCACGTCG ((((((((...((((((((+))))))))...)))))))) | 55 |
| CGACGTGCGGAATGTGCTG+CAGCACATATGGCACGTCG ((((((((...((((((((+))))))))...)))))))) | 50.8 |

| Substance | Tm [°C] |
| --- | --- |
| CGACGTGCGGAATGTGCTG+CAGCACATCATGCACGTCG ((((((((...((((((((+))))))))...)))))))) | 51.9 |
| CGACGTGCGGAATGTGCTG+CAGCACATCCAGCACGTCG ((((((((.(.((((((((+)))))))).).)))))))) | 55.1 |
| CGACGTGCGGAATGTGCTG+CAGCACATCGAGCACGTCG ((((((((...((((((((+))))))))...)))))))) | 54.6 |
| CGACGTGCGGAATGTGCTG+CAGCACATCTCGCACGTCG (((((((((..((((((((+))))))))..))))))))) | 55.3 |
| CGACGTGCGGAATGTGCTG+CAGCACATCTGGCACGTCG ((((((((...((((((((+))))))))...)))))))) | 52.3 |
| CGACGTGCGGAATGTGCTG+CAGCACATGCGGCACGTCG ((((((((.(.((((((((+)))))))).).)))))))) | 54.3 |
| CGACGTGCGGAATGTGCTG+CAGCACATGCTGCACGTCG ((((((((.(.((((((((+)))))))).).)))))))) | 54.7 |
| CGACGTGCGGAATGTGCTG+CAGCACATGGCGCACGTCG (((((((((..((((((((+))))))))..))))))))) | 58.4 |
| CGACGTGCGGAATGTGCTG+CAGCACATGTCGCACGTCG (((((((((..((((((((+))))))))..))))))))) | 57 |
| CGACGTGCGGAATGTGCTG+CAGCACATTAAGCACGTCG ((((((((..(((((((((+)))))))))..)))))))) | 55.8 |
| CGACGTGCGGAATGTGCTG+CAGCACATTCAGCACGTCG ((((((((.((((((((((+)))))))))).)))))))) | 60.2 |
| CGACGTGCGGAATGTGCTG+CAGCACATTGCGCACGTCG (((((((((.(((((((((+))))))))).))))))))) | 61.2 |
| CGACGTGCGGAATGTGCTG+CAGCACATTGGGCACGTCG ((((((((..(((((((((+)))))))))..)))))))) | 53.5 |
| CGACGTGCGGAATGTGCTG+CAGCACATTTAGCACGTCG ((((((((..(((((((((+)))))))))..)))))))) | 55.1 |
| CGACGTGCGGCATGTGCTG+CAGCACATAAGGCACGTCG ((((((((...((((((((+))))))))...)))))))) | 51.3 |
| CGACGTGCGGCATGTGCTG+CAGCACATAATGCACGTCG ((((((((...((((((((+))))))))...)))))))) | 51.1 |
| CGACGTGCGGCATGTGCTG+CAGCACATACGGCACGTCG ((((((((.(.((((((((+)))))))).).)))))))) | 51.5 |
| CGACGTGCGGCATGTGCTG+CAGCACATACTGCACGTCG ((((((((.(.((((((((+)))))))).).)))))))) | 54.2 |
| CGACGTGCGGCATGTGCTG+CAGCACATAGCGCACGTCG (((((((((..((((((((+))))))))..))))))))) | 55.9 |
| CGACGTGCGGCATGTGCTG+CAGCACATATGGCACGTCG ((((((((...((((((((+))))))))...)))))))) | 49.5 |
| CGACGTGCGGCATGTGCTG+CAGCACATCAAGCACGTCG ((((((((...((((((((+))))))))...)))))))) | 53.6 |
| CGACGTGCGGCATGTGCTG+CAGCACATCATGCACGTCG ((((((((...((((((((+))))))))...)))))))) | 51.2 |
| CGACGTGCGGCATGTGCTG+CAGCACATCCTGCACGTCG ((((((((.(.((((((((+)))))))).).)))))))) | 53.4 |
| CGACGTGCGGCATGTGCTG+CAGCACATCGCGCACGTCG (((((((((..((((((((+))))))))..))))))))) | 55.2 |
